From US5994105 come the findings set out here.

In the assay the target is commercially available renin (SIGMA). Particulars: scale: % remaining renin activities.

In turn, “rat acylglucosamine 2-epimerase obtained in example 4 (from UniProt P51607) (enzyme)” came in with a Remaining renin activities (%) of 48.
